Laboratory results reported in paper PMC5503505 (Nature structural & molecular biology, 2017).

T1: Orc2 (S. cerevisiae, UniProt P32833 1-620)
T1 sequence: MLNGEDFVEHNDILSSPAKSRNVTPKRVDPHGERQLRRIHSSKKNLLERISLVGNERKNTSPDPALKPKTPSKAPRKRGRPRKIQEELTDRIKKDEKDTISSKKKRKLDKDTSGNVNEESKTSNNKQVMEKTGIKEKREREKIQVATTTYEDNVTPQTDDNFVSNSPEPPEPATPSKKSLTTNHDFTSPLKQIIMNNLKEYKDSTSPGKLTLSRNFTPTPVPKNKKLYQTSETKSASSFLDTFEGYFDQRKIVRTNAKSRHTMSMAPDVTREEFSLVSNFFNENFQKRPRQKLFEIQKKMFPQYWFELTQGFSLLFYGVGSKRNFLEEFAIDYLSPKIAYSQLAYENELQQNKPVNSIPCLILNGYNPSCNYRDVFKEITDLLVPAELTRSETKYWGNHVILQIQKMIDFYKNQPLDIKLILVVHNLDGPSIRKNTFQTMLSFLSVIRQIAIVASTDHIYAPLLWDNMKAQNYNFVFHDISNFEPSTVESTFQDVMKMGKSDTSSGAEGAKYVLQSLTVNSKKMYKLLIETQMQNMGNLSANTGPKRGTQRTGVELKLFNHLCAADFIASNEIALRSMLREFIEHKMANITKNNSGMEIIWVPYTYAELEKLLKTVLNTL

T2: Orc4 (S. cerevisiae, UniProt P54791 1-529)
T2 sequence: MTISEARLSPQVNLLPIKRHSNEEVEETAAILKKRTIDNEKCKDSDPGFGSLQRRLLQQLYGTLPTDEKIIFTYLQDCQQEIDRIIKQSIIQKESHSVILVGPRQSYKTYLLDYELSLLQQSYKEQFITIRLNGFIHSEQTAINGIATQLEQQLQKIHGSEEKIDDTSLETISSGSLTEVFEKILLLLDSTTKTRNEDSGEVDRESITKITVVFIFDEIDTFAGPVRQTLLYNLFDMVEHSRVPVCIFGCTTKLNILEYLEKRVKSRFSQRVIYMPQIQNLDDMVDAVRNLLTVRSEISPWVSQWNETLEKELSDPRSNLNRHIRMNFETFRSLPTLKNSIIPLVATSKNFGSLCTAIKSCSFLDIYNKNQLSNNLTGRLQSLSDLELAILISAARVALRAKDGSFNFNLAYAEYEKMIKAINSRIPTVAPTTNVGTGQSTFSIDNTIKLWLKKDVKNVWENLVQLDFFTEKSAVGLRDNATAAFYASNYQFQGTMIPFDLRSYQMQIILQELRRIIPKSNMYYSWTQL

T3: Mcm2 (S. cerevisiae, UniProt P29469 1-868)
T3 sequence: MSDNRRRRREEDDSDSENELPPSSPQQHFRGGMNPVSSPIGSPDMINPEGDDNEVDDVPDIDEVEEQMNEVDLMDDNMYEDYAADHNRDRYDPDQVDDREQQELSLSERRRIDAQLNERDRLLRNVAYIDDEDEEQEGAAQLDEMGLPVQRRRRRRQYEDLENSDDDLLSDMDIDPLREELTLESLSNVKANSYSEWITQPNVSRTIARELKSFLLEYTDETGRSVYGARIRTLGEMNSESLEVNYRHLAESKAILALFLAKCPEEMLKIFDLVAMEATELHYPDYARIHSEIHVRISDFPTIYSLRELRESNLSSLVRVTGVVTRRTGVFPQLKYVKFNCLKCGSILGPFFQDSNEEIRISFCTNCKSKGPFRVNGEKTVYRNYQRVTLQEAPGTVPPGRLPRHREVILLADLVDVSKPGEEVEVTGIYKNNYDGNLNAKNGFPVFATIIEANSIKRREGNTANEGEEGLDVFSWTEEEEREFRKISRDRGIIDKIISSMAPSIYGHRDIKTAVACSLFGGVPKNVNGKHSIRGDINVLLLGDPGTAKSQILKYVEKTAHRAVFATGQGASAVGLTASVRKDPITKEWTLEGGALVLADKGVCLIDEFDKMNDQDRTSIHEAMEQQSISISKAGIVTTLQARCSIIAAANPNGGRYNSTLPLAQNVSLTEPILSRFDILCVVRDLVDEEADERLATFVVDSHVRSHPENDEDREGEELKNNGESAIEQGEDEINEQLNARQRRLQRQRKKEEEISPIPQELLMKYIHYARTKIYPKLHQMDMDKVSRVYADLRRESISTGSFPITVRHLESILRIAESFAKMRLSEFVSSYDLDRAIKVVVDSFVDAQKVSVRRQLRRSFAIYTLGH

B1: Orc3 (natural protein)
chain: MSDLNQSKKMNVSEFADAQRSHYTVYPSLPQSNKNDKHIPFVKLLSGKESEVNVEKRWELYHQLHSHFHDQVDHIIDNIEADLKAEISDLLYSETTQKRRCFNTIFLLGSDSTTKIELKDESSRYNVLIELTPKESPNVRMMLRRSMYKLYSAADAEEHPTIKYEDINDEDGDFTEQNNDVSYDLSLVENFKRLFGKDLAMVFNFKDVDSINFNTLDNFIILLKSAFKYDHVKISLIFNINTNLSNIEKNLRQSTIRLLKRNYHKLDVSSNKGFKYGNQIFQSFLDTVDGKLNLSDRFVEFILSKMANNTNHNLQLLTKMLDYSLMSYFFQNAFSVFIDPVNVDFLNDDYLKILSRCPTFMFFVEGLIKQHAPADEILSLLTNKNRGLEEFFVEFLVRENPINGHAKFVARFLEEELNITNFNLIELYHNLLIGKLDSYLDRWSACKEYKDRLHFEPIDTIFQELFTLDNRSGLLTQSIFPSYKSNIEDNLLSWEQVLPSLDKENYDTLSGDLDKIMAPVLGQLFKLYREANMTINIYDFYIAFRETLPKEEILNFIRKDPSNTKLLELAETPDAFDKVALILFMQAIFAFENMGLIKFQSTKSYDLVEKCVWRGI

Experiments:
Assay in all cases: cryo-EM structure
[1] = target: T1, Orc2
[2] = target: Mcm6 (S. cerevisiae, UniProt P53091 1-1017)
[3] = target: B1
[4] = target: T2, Orc4
[5] = target: T3, Mcm2

Sequence of Mcm6 (P53091 whole entry): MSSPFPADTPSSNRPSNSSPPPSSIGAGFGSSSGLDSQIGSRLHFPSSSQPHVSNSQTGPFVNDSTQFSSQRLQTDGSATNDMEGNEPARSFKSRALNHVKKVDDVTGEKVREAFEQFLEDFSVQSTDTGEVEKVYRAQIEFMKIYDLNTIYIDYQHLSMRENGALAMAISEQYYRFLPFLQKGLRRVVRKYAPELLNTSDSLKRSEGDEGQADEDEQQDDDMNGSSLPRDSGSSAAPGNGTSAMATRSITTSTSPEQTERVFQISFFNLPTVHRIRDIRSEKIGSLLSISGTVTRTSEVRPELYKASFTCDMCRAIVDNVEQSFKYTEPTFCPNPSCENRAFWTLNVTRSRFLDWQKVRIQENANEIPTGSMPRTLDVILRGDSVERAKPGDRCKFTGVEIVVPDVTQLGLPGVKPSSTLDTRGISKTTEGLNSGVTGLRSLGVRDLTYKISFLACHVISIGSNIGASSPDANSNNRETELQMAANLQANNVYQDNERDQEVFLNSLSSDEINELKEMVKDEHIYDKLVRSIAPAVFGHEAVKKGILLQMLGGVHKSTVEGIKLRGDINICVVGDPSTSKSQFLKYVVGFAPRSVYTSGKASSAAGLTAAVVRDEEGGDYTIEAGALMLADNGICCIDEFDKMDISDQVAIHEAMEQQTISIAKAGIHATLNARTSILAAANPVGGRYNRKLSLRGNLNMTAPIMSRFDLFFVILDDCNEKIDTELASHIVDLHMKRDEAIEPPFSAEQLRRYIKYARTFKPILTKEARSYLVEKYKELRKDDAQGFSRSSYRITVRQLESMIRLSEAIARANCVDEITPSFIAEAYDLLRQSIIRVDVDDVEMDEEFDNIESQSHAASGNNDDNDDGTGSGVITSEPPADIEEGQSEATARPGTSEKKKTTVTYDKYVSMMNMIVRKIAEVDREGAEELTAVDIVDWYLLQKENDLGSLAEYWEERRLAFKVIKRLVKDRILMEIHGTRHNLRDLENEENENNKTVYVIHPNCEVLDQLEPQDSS

Binder | binding result [1] | binding result [2] | binding result [3] | binding result [4] | binding result [5]
B1 | binds | – | – | – | –
Orc5 (natural protein) MNVTTPEVAFREYQTNCLASYISADPDITPSNLILQGYSGTGKTYTLKKYFNANPNLHAVWLEPVELVSWKPLLQAIARTVQYKLKTLYPNIPTTDYDPLQVEEPFLLVKTLHNIFVQYESLQEKTCLFLILDGFDSLQDLDAALFNKYIKLNELLPKDSKINIKFIYTMLETSFLQRYSTHCIPTVMFPRYNVDEVSTILVMSRCGELMEDSCLRKRIIEEQITDCTDDQFQNVAANFIHLIVQAFHSYTGNDIFALNDLIDFKWPKYVSRITKENIFEPLALYKSAIKLFLSTDDNLSENGQGESAITTNRDDLENSQTYDLSIISKYLLIASYICSYLEPRYDASIFSRKTRIIQGRAAYGRRKKKEVNPRYLQPSLFAIERLLAIFQAIFPIQGKAESGSLSALREESLMKANIEVFQNLSELHTLKLIATTMNKNIDYLSPKVRWKVNVPWEIIKEISESVHFNISDYFSDIHE | – | binds | binds | binds | binds
